# Reference: the Human Domainome abundance scans (Beltran et al. 2025)
# ± gives the uncertainty stated by the source.
# B1: Ankyrin-3, residues 4094 to 4171; numbered along this chain, Q12955 (parent)
# chain: MAIVADHLGLSWTELARELNFSVDEINQIRVENPNSLISQSFMLLKKWVTRDGKNATTDALTSVLTKINRIDIVTLLE
# Variants of: B1
# Assay: abundance fitness (aPCA) (normalised: wild type 0, dead -1); higher = more abundant; growth selection in yeast, the domain comes from the species named
# Conditions: Homo sapiens
row,Variant,abundance fitness
1,MAIVADHLGLSWTELARELNFSVDEINQIRFENPNSLISQSFMLLKKWVTRDGKNATTDALTSVLTKINRIDIVTLLE [V31F],-0.086 ± 0.11
2,MAIVADHLGLSWTELARELNFSVDEINQIRSENPNSLISQSFMLLKKWVTRDGKNATTDALTSVLTKINRIDIVTLLE [V31S],-0.006 ± 0.062
3,MAIVADHLGLSWTELARELNFSVDEINQIRAENPNSLISQSFMLLKKWVTRDGKNATTDALTSVLTKINRIDIVTLLE [V31A],-0.07 ± 0.055
4,MAIVADHLGLSWTELARELNFSVDEINQIRHENPNSLISQSFMLLKKWVTRDGKNATTDALTSVLTKINRIDIVTLLE [V31H],0.145 ± 0.098
5,MAIVADHLGLSWTELARELNFSVDEINQIRKENPNSLISQSFMLLKKWVTRDGKNATTDALTSVLTKINRIDIVTLLE [V31K],0.044 ± 0.11
6,MAIVADHLGLSWTELARELNFSVDEINQIREENPNSLISQSFMLLKKWVTRDGKNATTDALTSVLTKINRIDIVTLLE [V31E],-0.139 ± 0.098
7,MAIVADHLGLSWTELARELNFSVDEINQIRLENPNSLISQSFMLLKKWVTRDGKNATTDALTSVLTKINRIDIVTLLE [V31L],0.087 ± 0.051
8,MAIVADHLGLSWTELARELNFSVDEINQIRTENPNSLISQSFMLLKKWVTRDGKNATTDALTSVLTKINRIDIVTLLE [V31T],0.026 ± 0.08
9,MAIVADHLGLSWTELARELNFSVDEINQIRCENPNSLISQSFMLLKKWVTRDGKNATTDALTSVLTKINRIDIVTLLE [V31C],0.049 ± 0.19
10,MAIVADHLGLSWTELARELNFSVDEINQIRPENPNSLISQSFMLLKKWVTRDGKNATTDALTSVLTKINRIDIVTLLE [V31P],-0.929 ± 0.19
11,MAIVADHLGLSWTELARELNFSVDEINQIRQENPNSLISQSFMLLKKWVTRDGKNATTDALTSVLTKINRIDIVTLLE [V31Q],0.003 ± 0.077
12,MAIVADHLGLSWTELARELNFSVDEINQIRYENPNSLISQSFMLLKKWVTRDGKNATTDALTSVLTKINRIDIVTLLE [V31Y],0.057 ± 0.24
13,MAIVADHLGLSWTELARELNFSVDEINQIRWENPNSLISQSFMLLKKWVTRDGKNATTDALTSVLTKINRIDIVTLLE [V31W],-0.165 ± 0.072
14,MAIVADHLGLSWTELARELNFSVDEINQIRRENPNSLISQSFMLLKKWVTRDGKNATTDALTSVLTKINRIDIVTLLE [V31R],0.041 ± 0.044
15,MAIVADHLGLSWTELARELNFSVDEINQIRMENPNSLISQSFMLLKKWVTRDGKNATTDALTSVLTKINRIDIVTLLE [V31M],-0.191 ± 0.13
16,MAIVADHLGLSWTELARELNFSVDEINQIRDENPNSLISQSFMLLKKWVTRDGKNATTDALTSVLTKINRIDIVTLLE [V31D],0.058 ± 0.12
17,MAIVADHLGLSWTELARELNFSVDEINQIRGENPNSLISQSFMLLKKWVTRDGKNATTDALTSVLTKINRIDIVTLLE [V31G],-0.089 ± 0.047
18,MAIVADHLGLSWTELARELNFSVDEINQIRVMNPNSLISQSFMLLKKWVTRDGKNATTDALTSVLTKINRIDIVTLLE [E32M],-0.106 ± 0.077
19,MAIVADHLGLSWTELARELNFSVDEINQIRVKNPNSLISQSFMLLKKWVTRDGKNATTDALTSVLTKINRIDIVTLLE [E32K],-0.48 ± 0.21
20,MAIVADHLGLSWTELARELNFSVDEINQIRVANPNSLISQSFMLLKKWVTRDGKNATTDALTSVLTKINRIDIVTLLE [E32A],-0.039 ± 0.057
21,MAIVADHLGLSWTELARELNFSVDEINQIRVINPNSLISQSFMLLKKWVTRDGKNATTDALTSVLTKINRIDIVTLLE [E32I],-0.621 ± 0.2
22,MAIVADHLGLSWTELARELNFSVDEINQIRVCNPNSLISQSFMLLKKWVTRDGKNATTDALTSVLTKINRIDIVTLLE [E32C],-0.249 ± 0.093
23,MAIVADHLGLSWTELARELNFSVDEINQIRVHNPNSLISQSFMLLKKWVTRDGKNATTDALTSVLTKINRIDIVTLLE [E32H],-0.396 ± 0.28
24,MAIVADHLGLSWTELARELNFSVDEINQIRVGNPNSLISQSFMLLKKWVTRDGKNATTDALTSVLTKINRIDIVTLLE [E32G],-0.202 ± 0.043

row,Variant,abundance fitness
1,MAIVADHLGLSWTELARELNFSVDEINQIRVDNPNSLISQSFMLLKKWVTRDGKNATTDALTSVLTKINRIDIVTLLE [E32D],0.011 ± 0.085
2,MAIVADHLGLSWTELARELNFSVDEINEIRVENPNSLISQSFMLLKKWVTRDGKNATTDALTSVLTKINRIDIVTLLE [Q28E],0.035 ± 0.065
3,MAIVADHLGLSWTELARELNFSVDEINVIRVENPNSLISQSFMLLKKWVTRDGKNATTDALTSVLTKINRIDIVTLLE [Q28V],-0.399 ± 0.073
4,MAIVADHLGLSWTELARELNFSVDEINSIRVENPNSLISQSFMLLKKWVTRDGKNATTDALTSVLTKINRIDIVTLLE [Q28S],-0.094 ± 0.055
5,MAIVADHLGLSWTELARELNFSVDEINFIRVENPNSLISQSFMLLKKWVTRDGKNATTDALTSVLTKINRIDIVTLLE [Q28F],-0.479 ± 0.26
6,MAIVADHLGLSWTELARELNFSVDEINMIRVENPNSLISQSFMLLKKWVTRDGKNATTDALTSVLTKINRIDIVTLLE [Q28M],-0.179 ± 0.13
7,MAIVADHLGLSWTELARELNFSVDEINPIRVENPNSLISQSFMLLKKWVTRDGKNATTDALTSVLTKINRIDIVTLLE [Q28P],-0.652 ± 0.097
8,MAIVADHLGLSWTELARELNFSVDEINHIRVENPNSLISQSFMLLKKWVTRDGKNATTDALTSVLTKINRIDIVTLLE [Q28H],-0.202 ± 0.12
9,MAIVADHLGLSWTELARELNFSVDEINLIRVENPNSLISQSFMLLKKWVTRDGKNATTDALTSVLTKINRIDIVTLLE [Q28L],-0.254 ± 0.06
10,MAIVADHLGLSWTELARELNFSVDEINKIRVENPNSLISQSFMLLKKWVTRDGKNATTDALTSVLTKINRIDIVTLLE [Q28K],-0.134 ± 0.16
11,MAIVADHLGLSWTELARELNFSVDEINYIRVENPNSLISQSFMLLKKWVTRDGKNATTDALTSVLTKINRIDIVTLLE [Q28Y],-0.298 ± 0.3
12,MAIVADHLGLSWTELARELNFSVDEINGIRVENPNSLISQSFMLLKKWVTRDGKNATTDALTSVLTKINRIDIVTLLE [Q28G],-0.264 ± 0.06
13,MAIVADHLGLSWTELARELNFSVDEINRIRVENPNSLISQSFMLLKKWVTRDGKNATTDALTSVLTKINRIDIVTLLE [Q28R],-0.071 ± 0.043
14,MAIVADHLGLSWTELARELNFSVDEINTIRVENPNSLISQSFMLLKKWVTRDGKNATTDALTSVLTKINRIDIVTLLE [Q28T],-0.223 ± 0.083
15,MAIVADHLGLSWTELARELNFSVDEINWIRVENPNSLISQSFMLLKKWVTRDGKNATTDALTSVLTKINRIDIVTLLE [Q28W],-0.768 ± 0.14
16,MAIVADHLGLSWTELARELNFSVDEINIIRVENPNSLISQSFMLLKKWVTRDGKNATTDALTSVLTKINRIDIVTLLE [Q28I],-0.479 ± 0.39
17,MAIVADHLGLSWTELARELNFSVDEINNIRVENPNSLISQSFMLLKKWVTRDGKNATTDALTSVLTKINRIDIVTLLE [Q28N],-0.2 ± 0.16
18,MAIVADHLGLSWTELARELNFSVDEINQPRVENPNSLISQSFMLLKKWVTRDGKNATTDALTSVLTKINRIDIVTLLE [I29P],-0.808 ± 0.17
19,MAIVADHLGLSWTELARELNFSVDEINQCRVENPNSLISQSFMLLKKWVTRDGKNATTDALTSVLTKINRIDIVTLLE [I29C],-0.741 ± 0.18
20,MAIVADHLGLSWTELARELNFSVDEINQARVENPNSLISQSFMLLKKWVTRDGKNATTDALTSVLTKINRIDIVTLLE [I29A],-0.768 ± 0.11
21,MAIVADHLGLSWTELARELNFSVDEINQGRVENPNSLISQSFMLLKKWVTRDGKNATTDALTSVLTKINRIDIVTLLE [I29G],-0.927 ± 0.12
22,MAIVADHLGLSWTELARELNFSVDEINQFRVENPNSLISQSFMLLKKWVTRDGKNATTDALTSVLTKINRIDIVTLLE [I29F],-0.765 ± 0.23
23,MAIVADHLGLSWTELARELNFSVDEINQVRVENPNSLISQSFMLLKKWVTRDGKNATTDALTSVLTKINRIDIVTLLE [I29V],-0.302 ± 0.057
24,MAIVADHLGLSWTELARELNFSVDEINQHRVENPNSLISQSFMLLKKWVTRDGKNATTDALTSVLTKINRIDIVTLLE [I29H],-0.389 ± 0.39

row,Variant,abundance fitness
1,MAIVADHLGLSWTELARELNFSVDEINQSRVENPNSLISQSFMLLKKWVTRDGKNATTDALTSVLTKINRIDIVTLLE [I29S],-0.846 ± 0.11
2,MAIVADHLGLSWTELARELNFSVDEINQERVENPNSLISQSFMLLKKWVTRDGKNATTDALTSVLTKINRIDIVTLLE [I29E],-0.174 ± 0.16
3,MAIVADHLGLSWTELARELNFSVDEINQRRVENPNSLISQSFMLLKKWVTRDGKNATTDALTSVLTKINRIDIVTLLE [I29R],-0.857 ± 0.16
4,MAIVADHLGLSWTELARELNFSVDEINQWRVENPNSLISQSFMLLKKWVTRDGKNATTDALTSVLTKINRIDIVTLLE [I29W],-0.979 ± 0.17
5,MAIVADHLGLSWTELARELNFSVDEINQTRVENPNSLISQSFMLLKKWVTRDGKNATTDALTSVLTKINRIDIVTLLE [I29T],-0.752 ± 0.15
6,MAIVADHLGLSWTELARELNFSVDEINQLRVENPNSLISQSFMLLKKWVTRDGKNATTDALTSVLTKINRIDIVTLLE [I29L],-0.456 ± 0.064
7,MAIVADHLGLSWTELARELNFSVDEINQIVVENPNSLISQSFMLLKKWVTRDGKNATTDALTSVLTKINRIDIVTLLE [R30V],-0.172 ± 0.064
8,MAIVADHLGLSWTELARELNFSVDEINQIPVENPNSLISQSFMLLKKWVTRDGKNATTDALTSVLTKINRIDIVTLLE [R30P],-0.232 ± 0.13
9,MAIVADHLGLSWTELARELNFSVDEINQIMVENPNSLISQSFMLLKKWVTRDGKNATTDALTSVLTKINRIDIVTLLE [R30M],0.111 ± 0.099
10,MAIVADHLGLSWTELARELNFSVDEINQIEVENPNSLISQSFMLLKKWVTRDGKNATTDALTSVLTKINRIDIVTLLE [R30E],-0.088 ± 0.16
11,MAIVADHLGLSWTELARELNFSVDEINQIYVENPNSLISQSFMLLKKWVTRDGKNATTDALTSVLTKINRIDIVTLLE [R30Y],-0.061 ± 0.33
12,MAIVADHLGLSWTELARELNFSVDEINQIAVENPNSLISQSFMLLKKWVTRDGKNATTDALTSVLTKINRIDIVTLLE [R30A],-0.022 ± 0.064
13,MAIVADHLGLSWTELARELNFSVDEINQIQVENPNSLISQSFMLLKKWVTRDGKNATTDALTSVLTKINRIDIVTLLE [R30Q],-0.188 ± 0.097
14,MAIVADHLGLSWTELARELNFSVDEINQICVENPNSLISQSFMLLKKWVTRDGKNATTDALTSVLTKINRIDIVTLLE [R30C],-0.112 ± 0.11
15,MAIVADHLGLSWTELARELNFSVDEINQIFVENPNSLISQSFMLLKKWVTRDGKNATTDALTSVLTKINRIDIVTLLE [R30F],-0.628 ± 0.18
16,MAIVADHLGLSWTELARELNFSVDEINQITVENPNSLISQSFMLLKKWVTRDGKNATTDALTSVLTKINRIDIVTLLE [R30T],-0.158 ± 0.085
17,MAIVADHLGLSWTELARELNFSVDEINQISVENPNSLISQSFMLLKKWVTRDGKNATTDALTSVLTKINRIDIVTLLE [R30S],-0.074 ± 0.058
18,MAIVADHLGLSWTELARELNFSVDEINQIIVENPNSLISQSFMLLKKWVTRDGKNATTDALTSVLTKINRIDIVTLLE [R30I],0.064 ± 0.11
19,MAIVADHLGLSWTELARELNFSVDEINQIWVENPNSLISQSFMLLKKWVTRDGKNATTDALTSVLTKINRIDIVTLLE [R30W],-0.453 ± 0.17
20,MAIVADHLGLSWTELARELNFSVDEINQIGVENPNSLISQSFMLLKKWVTRDGKNATTDALTSVLTKINRIDIVTLLE [R30G],-0.385 ± 0.067
21,MAIVADHLGLSWTELARELNFSVDEINQIKVENPNSLISQSFMLLKKWVTRDGKNATTDALTSVLTKINRIDIVTLLE [R30K],-0.02 ± 0.16
22,MAIVADHLGLSWTELARELNFSVDEINQILVENPNSLISQSFMLLKKWVTRDGKNATTDALTSVLTKINRIDIVTLLE [R30L],-0.033 ± 0.076
